Measurements from the Human Domainome abundance scans (Beltran et al. 2025).
± gives the uncertainty stated by the source.

B1: Membrane-associated guanylate kinase, WW and PDZ domain-containing protein 1, residues 352 to 401; numbered along this chain, Q96QZ7 (parent)
chain: TEELDSELELPAGWEKIEDPVYGIYYVDHINRKTQYENPVLEAKRKKQLE

Variants of: B1
Test: abundance fitness (aPCA) (normalised: wild type 0, dead -1); higher = more abundant; growth selection in yeast, the domain comes from the species named
Details: Homo sapiens

Variant | abundance fitness
G13H | -0.54 ± 0.13
G13T | -0.898 ± 0.15
G13Y | -0.183 ± 0.066
G13W | -0.428 ± 0.06
G13V | -0.703 ± 0.066
G13M | -0.448 ± 0.057
R45P | -0.056 ± 0.059
R45C | -0.241 ± 0.082
R45K | 0.02 ± 0.062
R45Q | -0.032 ± 0.069
R45F | -0.248 ± 0.064
R45M | -0.159 ± 0.083
R45W | -0.352 ± 0.048
R45A | -0.193 ± 0.061
R45S | -0.067 ± 0.05
G23M | -0.9 ± 0.17
G23F | -0.826 ± 0.3
G23A | -1.1 ± 0.083
G23K | -0.762 ± 0.079
G23L | -1.13 ± 0.059
P39D | -0.314 ± 0.098
P39I | -1.04 ± 0.23
P39K | -0.857 ± 0.15
P39E | -0.466 ± 0.057

Variant | abundance fitness
P39Q | -0.447 ± 0.087
P39A | -0.379 ± 0.042
P39M | -0.714 ± 0.086
P39G | -0.393 ± 0.057
E42W | -0.26 ± 0.051
E42Q | -0.222 ± 0.081
E42Y | -0.366 ± 0.055
E42C | -0.297 ± 0.046
E42K | -0.505 ± 0.091
E42N | -0.285 ± 0.069
T34F | -0.387 ± 0.079
T34H | -0.407 ± 0.09
T34R | -0.035 ± 0.05
T34A | -0.413 ± 0.053
T34W | -0.193 ± 0.048
T34Y | -0.324 ± 0.089
T34I | -0.502 ± 0.076
T34N | -0.237 ± 0.083
V27N | -0.34 ± 0.12
V27I | -0.178 ± 0.098
V27L | -0.073 ± 0.062
V27C | -0.055 ± 0.062
V27T | -0.26 ± 0.042
V27W | -0.242 ± 0.053

Variant | abundance fitness
V27R | -0.069 ± 0.044
V27M | 0.038 ± 0.068
V27E | -0.229 ± 0.056
T1A | -0.474 ± 0.22
T1R | 0.104 ± 0.18
R32P | -0.564 ± 0.045
R32L | -0.119 ± 0.055
R32A | -0.249 ± 0.044
R32C | -0.168 ± 0.07
R32I | -0.387 ± 0.11
R32V | -0.333 ± 0.042
R32W | -0.519 ± 0.053
R32T | -0.607 ± 0.093
R32E | 0.002 ± 0.055
E15C | -0.794 ± 0.14
E15W | -0.856 ± 0.056
E15Y | -0.46 ± 0.23
E15A | -0.341 ± 0.057
E15R | -0.38 ± 0.051
E15K | -0.328 ± 0.1
E15Q | -0.229 ± 0.086
Y36E | -0.172 ± 0.041
Y36Q | -0.134 ± 0.049
Y36L | -0.048 ± 0.063

Variant | abundance fitness
Y36C | -0.463 ± 0.08
Y36A | -0.102 ± 0.067
Y36W | -0.093 ± 0.06
Y36F | -0.308 ± 0.085
W14C | -0.324 ± 0.092
W14V | -0.5 ± 0.044
W14S | -0.46 ± 0.078
W14L | -0.897 ± 0.08
W14N | 0.02 ± 0.13
W14I | 0.071 ± 0.13
W14T | -0.254 ± 0.081
S6L | -0.073 ± 0.062
S6C | -0.447 ± 0.12
S6K | -0.148 ± 0.1
S6T | 0.142 ± 0.091
S6V | 0.062 ± 0.054
S6D | -0.141 ± 0.055
S6W | -0.44 ± 0.1
S6G | -0.041 ± 0.06
S6R | 0.103 ± 0.054
A43C | -0.246 ± 0.078
A43E | -0.011 ± 0.053
A43V | -0.131 ± 0.042
A43W | -0.231 ± 0.069

Variant | abundance fitness
A43D | 0.003 ± 0.049
A43Q | -0.024 ± 0.047
A43T | 0.045 ± 0.064
D5A | 0.047 ± 0.071
D5W | -0.303 ± 0.072
D5I | 0 ± 0.057
D5Q | -0.128 ± 0.05
D5H | -0.192 ± 0.082
K47A | -0.075 ± 0.076
K47G | -0.169 ± 0.057
K47W | -0.414 ± 0.072
K47F | -0.239 ± 0.14
K47N | -0.318 ± 0.12
K47D | -0.154 ± 0.088
L10T | -0.608 ± 0.096
L10K | -0.668 ± 0.2
L10N | -0.574 ± 0.099
L10W | -0.553 ± 0.068
L10I | -0.148 ± 0.15
L10E | -0.654 ± 0.081
L10Q | -0.296 ± 0.046
L10F | -0.345 ± 0.095
V21S | -0.165 ± 0.063
V21L | 0.026 ± 0.043

Variant | abundance fitness
V21M | -0.517 ± 0.12
V21K | 0.012 ± 0.095
V21T | 0.081 ± 0.058
V21C | -0.038 ± 0.058
V21H | -0.232 ± 0.13
V21I | -0.034 ± 0.098
D28E | -0.696 ± 0.065
D28A | -1.16 ± 0.095
D28K | -0.764 ± 0.13
D28N | -0.303 ± 0.086
D28Q | -0.934 ± 0.14
D28F | -1.12 ± 0.27
L8S | -0.22 ± 0.07
L8G | -0.15 ± 0.049
L8W | -0.12 ± 0.07
L8M | -0.023 ± 0.078
L8N | -0.561 ± 0.23
L8T | -0.105 ± 0.097
L8E | -0.2 ± 0.058
K33N | -0.169 ± 0.12
K33E | -0.488 ± 0.083
K33M | -0.236 ± 0.081
K33F | -0.52 ± 0.15
K33Q | -0.034 ± 0.046

Variant | abundance fitness
K33T | -0.158 ± 0.066
K33P | -0.815 ± 0.13
K33D | -0.066 ± 0.1
K33I | -0.291 ± 0.083
E7P | -0.217 ± 0.091
E7T | 0.053 ± 0.071
E7W | -0.181 ± 0.094
E7A | 0.056 ± 0.062
E7R | -0.037 ± 0.044
E7N | -0.228 ± 0.14
E7Y | -0.399 ± 0.12
E7I | -0.314 ± 0.12
E7G | 0.05 ± 0.045
H29V | -0.207 ± 0.038
H29N | -0.01 ± 0.082
H29Q | -0.465 ± 0.086
H29S | -0.26 ± 0.064
H29T | 0.016 ± 0.064
H29E | -0.354 ± 0.081
H29C | -0.502 ± 0.095
H29P | -0.515 ± 0.057
H29F | -0.682 ± 0.14
H29G | -0.317 ± 0.042
